Measured values from publication PMC9056527, “Aptamer loaded superparamagnetic beads for selective capturing and gentle release of activated protein C”.

Tests used:
human α-thrombin (human) = human α-thrombin (human) (UniProt P00734)
[1] = biological target: T1, activated protein C (APC) (UniProt P04070;P04070 43-197;212-461); test: BLI; dissociation in binding buffer (Ca2+); 500 nM APC; Binding buffer with Ca2+ (composition not in material); elution buffer 10 mM Tris-HCl, 144 mM NaCl, pH 7.4, 5 mM EDTA; bead capture at RT, 30 min; conditions: protein: commercial; copies: 1;1; label: 3'-TEG-biotin
T1 sequence (P04070 43-197, chain 1 of 2): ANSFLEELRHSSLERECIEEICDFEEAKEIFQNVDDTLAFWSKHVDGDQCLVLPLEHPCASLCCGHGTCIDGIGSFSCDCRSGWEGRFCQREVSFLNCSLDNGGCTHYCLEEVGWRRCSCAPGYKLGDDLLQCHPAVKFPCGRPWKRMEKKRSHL
T1 sequence (P04070 212-461, chain 2 of 2): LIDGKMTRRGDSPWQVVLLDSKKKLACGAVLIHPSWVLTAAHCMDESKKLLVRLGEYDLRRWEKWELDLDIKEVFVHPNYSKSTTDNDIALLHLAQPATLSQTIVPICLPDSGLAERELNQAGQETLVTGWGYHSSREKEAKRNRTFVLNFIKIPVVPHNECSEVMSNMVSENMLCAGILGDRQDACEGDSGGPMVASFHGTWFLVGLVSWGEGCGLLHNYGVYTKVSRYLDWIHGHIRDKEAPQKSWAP

[2] = biological target: T1, activated protein C (APC); test: pull-down (aptamer-loaded magnetic beads); Ca2+ binding buffer; eluted with 5 mM EDTA; Binding buffer with Ca2+ (composition not in material); elution buffer 10 mM Tris-HCl, 144 mM NaCl, pH 7.4, 5 mM EDTA; bead capture at RT, 30 min; conditions: protein: commercial; copies: 1;1
[3] = biological target: protein C (PC, zymogen, Ceprotin) (UniProt P04070;P04070 43-197;200-461); test: pull-down (aptamer-loaded magnetic beads); PC activation mixture; PC in eluate below <0.2-0.24 µg/ml; Binding buffer with Ca2+ (composition not in material); elution buffer 10 mM Tris-HCl, 144 mM NaCl, pH 7.4, 5 mM EDTA; bead capture at RT, 30 min; conditions: protein: commercial; copies: 1;1
Chain of protein C (PC, zymogen, Ceprotin) (P04070 43-197, chain 1 of 2): as the sequence (P04070 43-197, chain 1 of 2) above
Chain of protein C (PC, zymogen, Ceprotin) (P04070 200-461, chain 2 of 2): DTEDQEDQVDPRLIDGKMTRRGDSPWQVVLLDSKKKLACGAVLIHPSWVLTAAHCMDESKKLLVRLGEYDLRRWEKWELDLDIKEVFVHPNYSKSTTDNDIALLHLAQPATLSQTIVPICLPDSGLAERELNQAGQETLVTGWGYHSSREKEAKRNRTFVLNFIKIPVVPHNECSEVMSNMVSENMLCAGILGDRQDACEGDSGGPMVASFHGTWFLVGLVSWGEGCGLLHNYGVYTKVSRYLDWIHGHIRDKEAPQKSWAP

[4] = biological target: T1, activated protein C (APC); test: pull-down (aptamer-loaded magnetic beads); Ca2+ binding buffer; 10 µg APC; Binding buffer with Ca2+ (composition not in material); elution buffer 10 mM Tris-HCl, 144 mM NaCl, pH 7.4, 5 mM EDTA; bead capture at RT, 30 min; conditions: protein: commercial; copies: 1;1

Molecule: recombinant hirudin (Refludan, Bayer Health Care) (natural protein)
- IC50 of hirudin for thrombin-catalysed hydrolysis of the fluorogenic substrate Boc-Asp(OBzl)-Pro-Arg-AMC; 2.5 µg/ml (68 nM) thrombin, hirudin 14 nM to 14 µM, 30 min in activation buffer (human α-thrombin (human)): 170 nM
- IC50 of hirudin for thrombin-catalysed hydrolysis of the fluorogenic substrate Boc-Asp(OBzl)-Pro-Arg-AMC; 12.5 µg/ml (341 nM) thrombin, hirudin 14 nM to 14 µM, 30 min in activation buffer (human α-thrombin (human)): 1960 nM
- IC50 of hirudin for thrombin-catalysed hydrolysis of the fluorogenic substrate Boc-Asp(OBzl)-Pro-Arg-AMC; 20 µg/ml (545 nM) thrombin, hirudin 14 nM to 14 µM, 30 min in activation buffer (human α-thrombin (human)): 2260 nM

B1: HS02-52G (ssDNA)
DNA: GCCTCCTAACTGAGCTGTACTCGACTTATCCCGGATGGGGCTCTTAGGAGGC
- binding result [1]: binds

B2: HS02-52G-NH2 (ssDNA)
DNA: B1 DNA
modifications: 3'-HEG-amino
- binding result [2]: binds
- binding result [3]: no binding

B3: AD02-52 (antisense control) (ssDNA)
DNA: GCCTCCTAAGAGCCCCATCCGGGATAAGTCGAGTACAGCTCAGTTAGGAGGC
modifications: 3'-HEG-amino
- binding result [4]: no binding
